Measured values as given in publication PMC5655542, “HpARI Protein Secreted by a Helminth Parasite Suppresses Interleukin-33” (Immunity, 2017).

Target: T1, H. polygyrus Alarmin Release Inhibitor (HpARI), recombinant mature 6-His and Myc-tagged protein (Heligmosomoides polygyrus)
T1 construct: HpARI, Heligmosomoides polygyrus; 251-aa protein including a 16-aa signal peptide; the mature protein (26 kDa, three CCP-like modules) was expressed; the CCP1/2 construct starts at amino acid 17; Codon-optimised synthetic gene cloned with AscI and NotI into pSecTAG2A; also called candidate D; not shown: myc, C-terminal, kept; His6, C-terminal, kept
Assay: SPR; BIAcore T200; HpARI captured via its 6-His tag on a Ni2+-NTA chip to 400 RU; cytokine injected (mIL-33 6.2-167 nM, hIL-33 0.062-1.67 μM); 25°C; 10 mM NaH2PO4 pH 7.5, 150 mM NaCl, 50 μM EDTA, 0.05% surfactant P20; single kinetic titration, global 1:1 fit
Conditions: both partners purified

T1 sequence (A0A3P7XL18 63-297): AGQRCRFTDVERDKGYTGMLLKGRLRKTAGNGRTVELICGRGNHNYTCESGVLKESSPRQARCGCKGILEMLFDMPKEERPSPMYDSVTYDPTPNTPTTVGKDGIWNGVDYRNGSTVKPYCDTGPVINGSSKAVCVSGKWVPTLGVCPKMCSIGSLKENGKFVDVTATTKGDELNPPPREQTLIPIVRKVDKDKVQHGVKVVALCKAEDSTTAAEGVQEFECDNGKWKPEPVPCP

B1: recombinant murine IL-33, untreated (reduced, active form) (ligand)
chain: SIQGTSLLTQSPASLSTYNDQSVSFVLENGCYVINVDDSGKDQEQDQVLLRYYESPCPASQSGDGVDGKKLMVNMSPIKDTDIWLHANDKDYSVELQRGDVSPPEQAFFVLHKKSSDFVSFECKNLPGTYIGVKDNQLALVEEKDESCNNIMFKLSKI
modifications: reduced (free cysteines, no disulfides), active form; limits not given, taken as the usual commercial mature mouse IL-33 (Ser109-Ile266, UniProt chain 109-266)
Question: How did the Kd turn out when B1 was run?
Answer: 0.56 ± 0.1 nM

Question: What about the “stoichiometry N” value of the same binder?
Answer: 1
